The source of these data is patent US20240174744A1 (SCIRHOM, published 2024).

For assay [1], the target named is T1, hiR2-FL-I566E-T7 (human iRhom2 full length I566E, 3 x T7 tag) (human, UniProt Q6PJF5 1-856).
T1 sequence: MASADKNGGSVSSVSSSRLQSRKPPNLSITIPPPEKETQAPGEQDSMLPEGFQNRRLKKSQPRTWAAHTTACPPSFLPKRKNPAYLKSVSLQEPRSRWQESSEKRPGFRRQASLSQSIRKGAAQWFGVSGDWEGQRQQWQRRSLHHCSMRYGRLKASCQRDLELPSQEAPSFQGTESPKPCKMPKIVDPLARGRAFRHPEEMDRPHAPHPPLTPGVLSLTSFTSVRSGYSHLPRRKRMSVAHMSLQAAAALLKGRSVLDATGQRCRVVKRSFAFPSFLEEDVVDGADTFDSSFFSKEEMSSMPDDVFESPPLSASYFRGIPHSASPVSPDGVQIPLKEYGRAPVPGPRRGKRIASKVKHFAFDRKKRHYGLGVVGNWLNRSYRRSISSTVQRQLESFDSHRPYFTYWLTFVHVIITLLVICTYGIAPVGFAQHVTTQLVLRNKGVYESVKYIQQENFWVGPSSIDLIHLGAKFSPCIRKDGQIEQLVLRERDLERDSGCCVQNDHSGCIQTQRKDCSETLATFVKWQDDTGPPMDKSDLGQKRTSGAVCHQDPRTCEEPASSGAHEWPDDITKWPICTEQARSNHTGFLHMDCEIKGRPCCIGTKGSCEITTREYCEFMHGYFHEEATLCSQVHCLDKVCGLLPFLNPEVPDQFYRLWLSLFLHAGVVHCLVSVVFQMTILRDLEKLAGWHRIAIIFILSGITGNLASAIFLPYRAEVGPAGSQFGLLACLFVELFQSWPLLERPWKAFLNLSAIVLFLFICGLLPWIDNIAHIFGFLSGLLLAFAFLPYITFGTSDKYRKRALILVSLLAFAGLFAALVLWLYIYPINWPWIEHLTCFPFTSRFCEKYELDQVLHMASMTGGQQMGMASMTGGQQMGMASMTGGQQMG
Briefly: FACS on MEF-DKO-hiR2-FL-I566E-T7 cells.

The target of assay [2] is T2, dog iRhom2 full length wild type, C-terminally tagged with 3 consecutive copies of the T7 epitope (dog, UniProt Q00M95 1-827).
T2 construct: whole, on cells; also called Dog-iR2-FL-WT-T7
T2 sequence: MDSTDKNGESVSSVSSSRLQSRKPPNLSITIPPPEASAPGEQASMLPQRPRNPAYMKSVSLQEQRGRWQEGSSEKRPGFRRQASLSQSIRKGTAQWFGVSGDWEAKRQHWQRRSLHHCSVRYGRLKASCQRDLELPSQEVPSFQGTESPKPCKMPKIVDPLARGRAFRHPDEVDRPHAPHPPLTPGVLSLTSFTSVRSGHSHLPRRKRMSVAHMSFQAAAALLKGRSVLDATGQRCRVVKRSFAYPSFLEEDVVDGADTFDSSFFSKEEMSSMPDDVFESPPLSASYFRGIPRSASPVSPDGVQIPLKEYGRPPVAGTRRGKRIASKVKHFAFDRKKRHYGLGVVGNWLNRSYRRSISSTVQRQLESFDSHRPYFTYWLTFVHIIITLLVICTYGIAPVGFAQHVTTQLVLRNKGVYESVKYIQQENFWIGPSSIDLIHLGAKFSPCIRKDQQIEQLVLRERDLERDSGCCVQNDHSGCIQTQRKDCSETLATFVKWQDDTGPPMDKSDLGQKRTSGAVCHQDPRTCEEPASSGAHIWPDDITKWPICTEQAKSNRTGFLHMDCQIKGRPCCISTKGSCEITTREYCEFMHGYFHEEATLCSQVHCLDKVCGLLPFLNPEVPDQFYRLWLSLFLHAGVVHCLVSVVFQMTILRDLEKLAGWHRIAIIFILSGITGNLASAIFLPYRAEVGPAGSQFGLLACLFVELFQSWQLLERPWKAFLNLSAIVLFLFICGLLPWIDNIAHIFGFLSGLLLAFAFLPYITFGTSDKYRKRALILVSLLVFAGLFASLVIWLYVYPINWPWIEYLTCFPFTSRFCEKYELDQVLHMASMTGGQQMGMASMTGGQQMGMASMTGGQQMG
Briefly: FACS on MEF-DKO-iR2 Dog cells, 3 µg/ml. On the procedure:
In brief, immortalized MEF-DKO-EV control cells, MEF-DKO-rhesus-iR2-FL-WT-T7 cells, MEF-DKO-cyno-iR2-FL-WT-T7 cells, MEF-DKO-dog-iR2-FL-WT-T7 cells and MEF-DKO-rabbit-iR2-FL-WT-T7 cells, as well as their respective iRhom1 counterparts, were harvested with 10 mM EDTA in PBS, washed and resuspended in FACS buffer (PBS, 3% FBS, 0.05% sodium azide), and seeded in Nunc U-bottom 96-well plates (Thermo Fisher Scientific, USA) at approximately 3×10⁵ cells per well. To pellet cells and remove supernatants, the plates were centrifuged at 1,500 rpm and 4° C. for 3 minutes. For primary staining, cells were resuspended in 100 μl per well of either FACS buffer alone (controls), mouse monoclonal anti-T7 IgG (Merck Millipore, USA) at 3 μg/ml FACS buffer or the antibodies of the present disclosure also at 3 μg/ml FACS buffer and incubated on ice for 1 hour. Afterwards, plates were centrifuged at 1,500 rpm and 4° C. for 3 minutes and washed twice with 200 μl per well of FACS buffer. For secondary staining, cells were spun down and resuspended in 100 μl per well of PE-conjugated goat anti-mouse IgG F(ab′)2 detection fragment (Dianova, Germany) diluted 1:100 in FACS buffer. Protected from light, the cell suspensions were incubated on ice for 1 hour. […] Finally, cells were resuspended in 150 μl per well of FACS buffer and analyzed using a BD Accuri™ C6 Plus flow cytometer (Becton Dickinson, Germany).

B1: antibody 5 (antibody, V domains shown)
VH: QVTLKESGPGILQPSQTLSLTCSFSGFSLSTFGMGVGWIRQPSGKGLEWLAHIWWDDEKYYNSALKSRLTISKATSKNQAFLKIANVDTADTATYYCARISNYGSNYWYFNVWGTGTTVTVSS
VL: QVVLTQSPALMSASPGEKVTMTCSAGSSVSCMYWYQQKPGSSPRVLIYDTSNLASGVPARFTGSGSGTSYSLTISRMEAEDAASYYCQQWNSYPLTFGAGTKLELK
notes: Mouse IgG, kappa light chain; also called clone #5; purified antibody 5
Consider B1, for which the binding result in assay [1] is recorded as “no binding (tested: 3 µg/ml)”.

B2: antibody 16 (antibody, V domains shown)
VH: QVTLKESGPGILQPSQTLSLTCSFSGFSLSTFALGVGWIRQPSGRGLEWLAHIWWDDDKYYNPALKSRLTISKDTSKNHVFLKIANVDTADTATYYCARITTYYYGMDYWGQGTSVTVSS
VL: DIVLSQSPATLSVTPGDSVSLFCRASQSIGNHLHWYQQESHASPRLLIKYASQSISGIPSRFSGSGSGTDFTLSINSVETEDFGMYFCQQSYNWPLTFGAGTKLELK
notes: Mouse IgG, kappa light chain; also called clone #16; m16
As for B2, the binding result in assay [2] is reported as “binds”.
